The record followed here is the Immune Epitope Database (IEDB).

Targets include HLA-A*68:02; HLA-A*02:01; HLA-A*02:02; HLA-A*02:06; HLA-A*02:03.
What all share (assay): IEDB peptide-MHC binding, purified MHC/competitive/radioactivity; ≥ and ≤ were set here for values at or beyond the usual limits of such assays
Where [1] appears, read: source organism: Vaccinia virus WR.
Setting [2] is: source organism: Hepacivirus hominis.
Setting [3] is: source organism: Influenza A virus.
Setting [4] is: source organism: Mammarenavirus choriomeningitidis.
The mark [5] stands for this setting: source organism: Mammarenavirus lassaense.

Turning to FLFWFLKSGA, the IC50 in the assay with HLA-A*68:02 (setting [1]) was found to be 38 nM; in the assay with HLA-A*02:01 (setting [1]), 1.9 nM; with HLA-A*02:02 (setting [1]) it was 1.1 nM; with HLA-A*02:06 (setting [1]), 23 nM; with HLA-A*02:03 (setting [1]), 0.58 nM.

As for FLIVAALVFL, the IC50 worked out at 1090 nM in the assay with HLA-A*68:02 (source organism: SARS-CoV1); 11 nM in the assay with HLA-A*02:01 (source organism: SARS-CoV1); 3 nM with HLA-A*02:02 (source organism: SARS-CoV1); 3.6 nM in the assay with HLA-A*02:06 (source organism: SARS-CoV1); 162 nM with HLA-A*02:03 (source organism: SARS-CoV1).

Regarding FLLPLTSLVI, the IC50 is 1020 nM with HLA-A*68:02 (setting [1]); 0.84 nM with HLA-A*02:01 (setting [1]); 11 nM with HLA-A*02:02 (setting [1]); 2.5 nM with HLA-A*02:06 (setting [1]); 5.1 nM with HLA-A*02:03 (setting [1]).

Take FLLPSLATV: the IC50 with HLA-A*68:02 (source organism: SARS-CoV1) came out at 16 nM; with HLA-A*02:01 (source organism: SARS-CoV1), 0.34 nM; with HLA-A*02:02 (source organism: SARS-CoV1), 0.13 nM; in the assay with HLA-A*02:06 (source organism: SARS-CoV1) it was 0.41 nM; in the assay with HLA-A*02:03 (source organism: SARS-CoV1) it was 0.2 nM.

In the case of FLNGSCGSV, the IC50 was found to be 318 nM with HLA-A*68:02 (source organism: SARS-CoV1); 5.8 nM with HLA-A*02:01 (source organism: SARS-CoV1); 1 nM with HLA-A*02:02 (source organism: SARS-CoV1); 64 nM in the assay with HLA-A*02:06 (source organism: SARS-CoV1); 0.57 nM in the assay with HLA-A*02:03 (source organism: SARS-CoV1).

With FLPQIGGEA, the IC50 with HLA-A*68:02 (setting [1]) was 149 nM; in the assay with HLA-A*02:01 (setting [1]) it was 1360 nM; in the assay with HLA-A*02:02 (setting [1]) it was 21 nM; with HLA-A*02:06 (setting [1]) it was 96 nM; in the assay with HLA-A*02:03 (setting [1]), 121 nM.

As for FLTGTFVTA, the IC50 in the assay with HLA-A*68:02 (setting [1]) came out at 896 nM; with HLA-A*02:01 (setting [1]), 15 nM; with HLA-A*02:02 (setting [1]), 4.7 nM; with HLA-A*02:06 (setting [1]), 2.1 nM; with HLA-A*02:03 (setting [1]) it was 0.71 nM.

As for FMRDEVSFSV, the IC50 turned out to be 2950 nM with HLA-A*68:02 (setting [2]); 4 nM with HLA-A*02:01 (setting [2]); 2.2 nM with HLA-A*02:02 (setting [2]); 10 nM with HLA-A*02:06 (setting [2]); 2.7 nM in the assay with HLA-A*02:03 (setting [2]).

In the case of FMRFFTLGSI, the IC50 with HLA-A*68:02 (source organism: SARS-CoV1) is 412 nM; with HLA-A*02:01 (source organism: SARS-CoV1) it was 105 nM; with HLA-A*02:02 (source organism: SARS-CoV1), 24 nM; with HLA-A*02:06 (source organism: SARS-CoV1), 195 nM; in the assay with HLA-A*02:03 (source organism: SARS-CoV1), 0.76 nM.

With FMSHVKSVT, the IC50 with HLA-A*68:02 (setting [1]) was determined as 2600 nM; with HLA-A*02:01 (setting [1]), 873 nM; with HLA-A*02:02 (setting [1]) it was 508 nM; with HLA-A*02:06 (setting [1]), 4320 nM; with HLA-A*02:03 (setting [1]), 181 nM.

For FMYTKHSML, the IC50 in the assay with HLA-A*68:02 (setting [1]) is 3540 nM; with HLA-A*02:01 (setting [1]), 20 nM; with HLA-A*02:02 (setting [1]) it was 2.4 nM; with HLA-A*02:06 (setting [1]), 222 nM; with HLA-A*02:03 (setting [1]), 0.39 nM.

Turning to FQESFYEDIA, the IC50 with HLA-A*68:02 (setting [1]) was found to be 2910 nM; with HLA-A*02:01 (setting [1]) it was 4840 nM; with HLA-A*02:02 (setting [1]), 2560 nM; with HLA-A*02:06 (setting [1]), 303 nM; with HLA-A*02:03 (setting [1]), 555 nM.

Turning to FQVDCFLWH, the half-maximal inhibitory concentration (IC50) was 3660 nM with HLA-A*68:02 (setting [3]); 336 nM with HLA-A*02:01 (setting [3]); 216 nM in the assay with HLA-A*02:02 (setting [3]); 93 nM with HLA-A*02:06 (setting [3]); 1260 nM with HLA-A*02:03 (setting [3]).

Regarding FSTSAYLISI, the IC50 stood at 1.4 nM in the assay with HLA-A*68:02 (setting [4]); 9 nM in the assay with HLA-A*02:01 (setting [4]); 0.68 nM with HLA-A*02:02 (setting [4]); 3.5 nM in the assay with HLA-A*02:06 (setting [4]); 14 nM in the assay with HLA-A*02:03 (setting [4]).

Turning to FSTSFYLISI, the IC50 with HLA-A*68:02 (setting [5]) was found to be 1.8 nM; with HLA-A*02:01 (setting [5]), 32 nM; with HLA-A*02:02 (setting [5]), 2.1 nM; with HLA-A*02:06 (setting [5]) it was 9.2 nM; with HLA-A*02:03 (setting [5]) it was 53 nM.

On to FTEGKINPLL, for which the IC50 in the assay with HLA-A*68:02 (setting [1]) was determined as 243 nM; in the assay with HLA-A*02:01 (setting [1]) it was 162 nM; with HLA-A*02:02 (setting [1]) it was 150 nM; in the assay with HLA-A*02:06 (setting [1]) it was 86 nM; in the assay with HLA-A*02:03 (setting [1]), 595 nM.

As to FTFGDTALYV, the IC50 in the assay with HLA-A*68:02 (setting [1]) was 175 nM; with HLA-A*02:01 (setting [1]), 181 nM; with HLA-A*02:02 (setting [1]), 24 nM; with HLA-A*02:06 (setting [1]) it was 3.5 nM; with HLA-A*02:03 (setting [1]), 48 nM.

Consider FTILEYLYI, for which the half-inhibitory concentration (IC50) was 22 nM with HLA-A*68:02 (setting [1]); 68 nM with HLA-A*02:01 (setting [1]); 1560 nM in the assay with HLA-A*02:02 (setting [1]); 267 nM in the assay with HLA-A*02:06 (setting [1]); 169 nM with HLA-A*02:03 (setting [1]).

With FTILEYLYIM, the IC50 came out at 2170 nM in the assay with HLA-A*68:02 (setting [1]); 95 nM in the assay with HLA-A*02:01 (setting [1]); 355 nM in the assay with HLA-A*02:02 (setting [1]); 40 nM with HLA-A*02:06 (setting [1]); 3200 nM with HLA-A*02:03 (setting [1]).

As to FTKDGKLDDT, the IC50 with HLA-A*68:02 (setting [1]) stood at 4080 nM; with HLA-A*02:01 (setting [1]), 980 nM; in the assay with HLA-A*02:02 (setting [1]) it was 145 nM; in the assay with HLA-A*02:06 (setting [1]), 898 nM; in the assay with HLA-A*02:03 (setting [1]), 187 nM.

With FTLLFQLCT, the IC50 in the assay with HLA-A*68:02 (source organism: SARS-CoV1) was 2740 nM; with HLA-A*02:01 (source organism: SARS-CoV1), 133 nM; with HLA-A*02:02 (source organism: SARS-CoV1), 1100 nM; in the assay with HLA-A*02:06 (source organism: SARS-CoV1), 140 nM; with HLA-A*02:03 (source organism: SARS-CoV1), 744 nM.

Regarding FTNSQIFNI, the IC50 in the assay with HLA-A*68:02 (setting [1]) was determined as 0.23 nM; with HLA-A*02:01 (setting [1]), 9 nM; with HLA-A*02:02 (setting [1]), 6.9 nM; in the assay with HLA-A*02:06 (setting [1]), 4.8 nM; in the assay with HLA-A*02:03 (setting [1]) it was 7.1 nM.

Turning to FTNSQIFNII, the IC50 in the assay with HLA-A*68:02 (setting [1]) is 16 nM; in the assay with HLA-A*02:01 (setting [1]) it was 1570 nM; in the assay with HLA-A*02:02 (setting [1]) it was 143 nM; with HLA-A*02:06 (setting [1]), 1200 nM; with HLA-A*02:03 (setting [1]) it was 457 nM.

Regarding FTSDYPFYV, the IC50 came out at 1.1 nM with HLA-A*68:02 (setting [1]); 1.5 nM with HLA-A*02:01 (setting [1]); 2.1 nM with HLA-A*02:02 (setting [1]); 3.6 nM with HLA-A*02:06 (setting [1]); 3.9 nM in the assay with HLA-A*02:03 (setting [1]).
